According to publication PMC4281351, “Heterogeneity of quaternary structure of glucosamine-6-phosphate deaminase from Giardia lamblia” (Parasitology Research, 2014):
Several values for one entry are separate records, joined by “and”; a condition that tells them apart may be missing. Equal values may be shown once.

B1: wild-type glucosamine-6-phosphate deaminase of Giardia lamblia (GlmNagB) (enzyme, UniProt O97439 1-266, looked up)
chain: MPSIHVSKCADPAIKLAHRIAEVVRSKPNCVLGLATGSTPIPVYQELARLHREEGLDFSQVRTFNLDEYAGLPPTHDQTYRFFMEEHLFSKVNIKPENVHFLNGMASDYEKECERYEQELKAIGPCDVWLLGIGHNGHIAFNEPGSPRDSRTRVVCLTQSTIDANARFFGNDKSKVPTKALSVGIATIMESREILLLATGESKREAVTKSVKGKCETHCPASFLHEHPHCRFYVDMDAGKVVDNTCCQATNQASCCGSTSCHAAKA
notes: glucosamine-6-phosphate deaminase of Giardia lamblia, GPI1 (GN6PI) gene cloned from strain MR4; primers run from the start ATG to the stop codon; calculated mass 29.4 kDa; No tag (pETTopo-GlmNagB); In solution a mixture of monomer, homodimer and homotetramer; also called wild-type GlmNagB; native GlmNagB; source: E. coli BL21(DE3) pLysS, purified (streptomycin sulfate, ammonium sulfate, PEG, ion …)
B2: G. lamblia GlcN6P deaminase with C-terminal His6 fusion (GlmNagB-HisC) (enzyme, Giardia lamblia, UniProt O97439 1-266, looked up)
chain: B1 chain
notes: glucosamine-6-phosphate deaminase of Giardia lamblia, GPI1 (GN6PI) gene cloned from strain MR4; forward primer from the start ATG, reverse primer adds six His codons after the last codon and then the stop; calculated mass 30.2 kDa with the tag; pETTopo-GlmNagB-HisC; hexaHis stands directly at the C-terminus; source: E. coli BL21(DE3) pLysS, purified (Ni2+-IDA agarose); not shown: His6, …
B3: G. lamblia GlcN6P deaminase with N-terminal His6 fusion (GlmNagB-HisN) (enzyme, Giardia lamblia, UniProt O97439 1-266, looked up)
chain: B1 chain
notes: glucosamine-6-phosphate deaminase of Giardia lamblia, GPI1 (GN6PI) gene cloned from strain MR4; NdeI/BamHI insert from the start ATG to the stop codon in pET15b; calculated mass 31.7 kDa with the tag; source: E. coli BL21(DE3) pLysS, purified (Ni2+-IDA agarose); not shown: His6, N-terminal, kept

Target: the molecule itself
Experiment: SEC; Superdex 200HR 10/300 GL; 0.5 ml applied, 0.5 ml/min; 50 mM potassium phosphate pH 7.0, 0.15 M NaCl; masses from a plot of log molecular mass versus Kav; fresh preparations and preparations stored for several hours at 4 °C or of higher protein concentration

Stoichiometry N, 4 and 2:
B1
B2
B3
